Here are results for 8 molecules from PMC8523171, “The cooperative binding of TDP-43 to GU-rich RNA repeats antagonizes TDP-43 aggregation”.

One data set concerns the target TDP-43 RRM1-2 (human) (UniProt Q13148). Description: ITC. The following applies: apparent, one set of sites model, ITC: 15 mM phosphate pH 6.8, 25 mM KCl, 1 mM TCEP, 25 C, NMR: same buffer, 298 K (SEA-HSQC 310 K), EMSA: 20 mM HEPES pH 7.6, 25 mM KCl, 2 mM MgCl2 …. For orientation: Mobility shift assays separate free from complexed probe on a gel.
The target of data set [1] is T1, TDP-43 RRM1 (human, UniProt Q13148 101-192). Description: ITC; Kd1; ITC: 15 mM phosphate pH 6.8, 25 mM KCl, 1 mM TCEP, 25 C; NMR: same buffer, 298 K (SEA-HSQC 310 K); EMSA: 20 mM HEPES pH 7.6, 25 mM KCl, 1 mM TCEP, 2 mM MgCl2, room temperature, 10 pmol DNA in 10 uL. The note with it: protein: recombinant; tags: His6 cleaved by TEV; chain copies: 2; single strand. On the technique in general: In ITC the heat of successive injections is recorded.

The target in data set [2] is T2, TDP-43 RRM1-2 (human, UniProt Q13148 101-277). Briefly: ITC; Kd1, first monomer; ITC: 15 mM phosphate pH 6.8, 25 mM KCl, 1 mM TCEP, 25 C; NMR: same buffer, 298 K (SEA-HSQC 310 K); EMSA: 20 mM HEPES pH 7.6, 25 mM KCl, 1 mM TCEP, 2 mM MgCl2, room temperature, 10 pmol DNA in 10 uL. The note with it: protein: recombinant; tags: His6 cleaved by TEV; residual N-terminal GSH (180 aa); single strand.

For data set [3], the target named is T2, TDP-43 RRM1-2. Briefly: NMR and SAXS; two RRM1-2 bound; ITC: 15 mM phosphate pH 6.8, 25 mM KCl, 1 mM TCEP, 25 C; NMR: same buffer, 298 K (SEA-HSQC 310 K); EMSA: 20 mM HEPES pH 7.6, 25 mM KCl, 1 mM TCEP, 2 mM MgCl2, room temperature, 10 pmol DNA in 10 uL. The following applies: protein: recombinant; tags: His6 cleaved by TEV; residual N-terminal GSH (180 aa); single strand.

Data set [4] concerns the target T2, TDP-43 RRM1-2. Description: NMR and SAXS; same dimer interface as with (GU)12; ITC: 15 mM phosphate pH 6.8, 25 mM KCl, 1 mM TCEP, 25 C; NMR: same buffer, 298 K (SEA-HSQC 310 K); EMSA: 20 mM HEPES pH 7.6, 25 mM KCl, 1 mM TCEP, 2 mM MgCl2, room temperature, 10 pmol DNA in 10 uL. The note with it: protein: recombinant; tags: His6 cleaved by TEV; residual N-terminal GSH (180 aa); single strand.

In data set [5] the target is T2, TDP-43 RRM1-2. Description: ITC; ITC: 15 mM phosphate pH 6.8, 25 mM KCl, 1 mM TCEP, 25 C; NMR: same buffer, 298 K (SEA-HSQC 310 K); EMSA: 20 mM HEPES pH 7.6, 25 mM KCl, 1 mM TCEP, 2 mM MgCl2, room temperature, 10 pmol DNA in 10 uL. The following applies: protein: recombinant; tags: His6 cleaved by TEV; residual N-terminal GSH (180 aa); single strand.
The target of data set [6] is T1, TDP-43 RRM1. The data set is described as above. The following applies: protein: recombinant; tags: His6 cleaved by TEV; chain copies: 2; single strand.
Data set [7] concerns the target T2, TDP-43 RRM1-2. Description: NMR; single RRM1-2 bound; ITC: 15 mM phosphate pH 6.8, 25 mM KCl, 1 mM TCEP, 25 C; NMR: same buffer, 298 K (SEA-HSQC 310 K); EMSA: 20 mM HEPES pH 7.6, 25 mM KCl, 1 mM TCEP, 2 mM MgCl2, room temperature, 10 pmol DNA in 10 uL. The following applies: protein: recombinant; tags: His6 cleaved by TEV; residual N-terminal GSH (180 aa); single strand.

A further data set concerns the target TDP-43 RRM2 (human, UniProt Q13148 176-277). Briefly: ITC; two protein copies; Kd values not in material; ITC: 15 mM phosphate pH 6.8, 25 mM KCl, 1 mM TCEP, 25 C; NMR: same buffer, 298 K (SEA-HSQC 310 K); EMSA: 20 mM HEPES pH 7.6, 25 mM KCl, 1 mM TCEP, 2 mM MgCl2, room temperature, 10 pmol DNA in 10 uL. The following applies: protein: recombinant; tags: His6 cleaved by TEV; chain copies: 2; single strand.

Data set [8] has as its target T2, TDP-43 RRM1-2. Briefly: NMR; additional CSPs and peak broadening; ITC: 15 mM phosphate pH 6.8, 25 mM KCl, 1 mM TCEP, 25 C; NMR: same buffer, 298 K (SEA-HSQC 310 K); EMSA: 20 mM HEPES pH 7.6, 25 mM KCl, 1 mM TCEP, 2 mM MgCl2, room temperature, 10 pmol DNA in 10 uL. The following applies: protein: recombinant; tags: His6 cleaved by TEV; residual N-terminal GSH (180 aa); single strand.

T2 sequence (Q13148 101-277): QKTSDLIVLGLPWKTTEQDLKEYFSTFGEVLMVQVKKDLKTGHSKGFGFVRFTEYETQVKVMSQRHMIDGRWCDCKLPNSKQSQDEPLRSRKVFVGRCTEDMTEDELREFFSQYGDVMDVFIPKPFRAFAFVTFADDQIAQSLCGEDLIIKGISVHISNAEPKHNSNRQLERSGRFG
T1 sequence (Q13148 101-192): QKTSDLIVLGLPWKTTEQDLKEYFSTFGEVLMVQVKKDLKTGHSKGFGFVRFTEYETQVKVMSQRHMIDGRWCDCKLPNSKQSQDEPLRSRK
Chain of TDP-43 RRM1-2 (human) (Q13148 101-277): as the sequence (Q13148 101-277) above
Chain of TDP-43 RRM2 (Q13148 176-277): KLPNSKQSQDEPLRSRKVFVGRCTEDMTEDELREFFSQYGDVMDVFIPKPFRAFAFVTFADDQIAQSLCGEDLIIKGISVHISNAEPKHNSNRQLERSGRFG

Take CLIP34nt (DNA): the Kd with TDP-43 RRM1-2 (human) is 270 nM.

For GTGTGTGTGTGTGTGTGTGTGTGT (ssDNA) [(GT)12], the Kd came to 2300 nM with TDP-43 RRM1 [1] and 51 nM in the data set with TDP-43 RRM1-2 [2].

On to GUGUGUGUGUGUGUGUGUGUGUGU (ssRNA) [(GU)12], for which, in the data set with TDP-43 RRM1-2 [3], the binding result is “binds”.

Consider GUGUGAAUGAAUGUGUGUGUGUGU (ssRNA) [AUG12-(GU)6], for which the binding result in the data set with TDP-43 RRM1-2 [4] was “binds”.

In the case of GTGTGT (ssDNA) [(GT)3], the Kd in the data set with TDP-43 RRM1-2 [5] came to 2200 nM; in the data set with TDP-43 RRM1 [6] it was 929 nM.

For the molecule GUGUGUGUGUGU (ssRNA) [(GU)6], the binding result with TDP-43 RRM1-2 [7] is given as “binds”.

On to GTGTGTGTGTGT (ssDNA) [(GT)6], for which the binding signal with TDP-43 RRM2 turned out to be 0.05 Kd1/Kd2 ratio. Further, the values for the Kd with TDP-43 RRM1-2 [5] and in the data set with TDP-43 RRM1 [1] were 68.4 nM and 84.4 nM, respectively.

As to GUGUGUGUGUGUGUGUGUGUGUGUGUGUGUGUGUGUGUGUGUGUGUGU (ssRNA) [(GU)24], the binding result with TDP-43 RRM1-2 [8] is “binds”.
